Measured values taken from the supplement of paper PMC10567573.

B1: CDC14A (parent)
chain: LNLAMVYRYCCKLNKKLKSYSLSR

Variants of: B1
Test: protein stability index of a GFP-peptide fusion (GPS, HEK-293T) (PSI 1-6); higher = more stable
Conditions: c terminus: a fixed tail appended
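Also: lentivirally expressed fusions sorted by FACS into six bins by GFP to DsRed ratio, PSI derived from sequencing read proportions per bin multiplied by bin number.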

First: LNLAMVYRYCDKLNKKLKSYSLSR [C11D]
Second: LNLAMVYRYCCKWNKKLKSYSLSR [L13W]
The protein stability index of the first is higher: 2.85 for the first, 1.96 for the second.

First: LNLAMVYRYCCKLNKKLKSYSCSR [L22C]
Second: LNLAMVYRYCCKLRKKLKSYSLSR [N14R]
The protein stability index of the first is lower: 2.92 for the first, 3.97 for the second.

First: LNLAMVYRYCCKLNKKLKSYSLSG [R24G]
Second: LNLAMWYRYCCKLNKKLKSYSLSR [V6W]
The protein stability index of the first is lower: 2.21 for the first, 3.43 for the second.

First: LNLAMVYRYCCKLMKKLKSYSLSR [N14M]
Second: LNLAMVYRYCCKLNKKLKSASLSR [Y20A]
The protein stability index of the first is lower: 1.94 for the first, 2.61 for the second.

Going from LNLAKVYRYCCKLNKKLKSYSLSR [M5K] to LNLAMVYRYCCKLNKKLKSYSLRR [S23R], the protein stability index rises from 3.87 to 4.26.

First: LNLAMVYRYCCKLNKKLKSYSLNR [S23N]
Second: LNLAMVMRYCCKLNKKLKSYSLSR [Y7M]
The protein stability index of the first is higher: 2.35 for the first, 1.91 for the second.

Compared with LNLAMVYRYCIKLNKKLKSYSLSR [C11I], LNLAMVYRYCLKLNKKLKSYSLSR [C11L] is lower in protein stability index: 3.23 for the first, 2.64 for the second.

First: LNLAMVYRECCKLNKKLKSYSLSR [Y9E]
Second: LNLAMVKRYCCKLNKKLKSYSLSR [Y7K]
The protein stability index of the first is higher: 2.45 for the first, 2.13 for the second.

Going from LNLQMVYRYCCKLNKKLKSYSLSR [A4Q] to LNLAMVYRYCCKLNKKLKPYSLSR [S19P], the protein stability index falls from 4.07 to 2.75.

First: LNLAMVYRYCCKLNKKFKSYSLSR [L17F]
Second: LNLAMVYRMCCKLNKKLKSYSLSR [Y9M]
The protein stability index of the first is higher: 2.64 for the first, 1.81 for the second.

First: HNLAMVYRYCCKLNKKLKSYSLSR [L1H]
Second: LNLAMVYRYCCKTNKKLKSYSLSR [L13T]
The protein stability index of the first is higher: 2.26 for the first, 2.08 for the second.

First: LNLAMVYRYCCKLNKKLKSKSLSR [Y20K]
Second: LNLAMVYRYCCKLNKKLKSYSNSR [L22N]
The protein stability index of the first is higher: 3.24 for the first, 1.75 for the second.

Going from CNLAMVYRYCCKLNKKLKSYSLSR [L1C] to INLAMVYRYCCKLNKKLKSYSLSR [L1I], the protein stability index falls from 3.72 to 3.18.

Going from LNLAMVYRYCCKLNKKLKSYSSSR [L22S] to LNLAMEYRYCCKLNKKLKSYSLSR [V6E], the protein stability index falls from 3.58 to 1.76.

Going from LNLWMVYRYCCKLNKKLKSYSLSR [A4W] to LNLAMVYRYCCKLNKKLKSYSLPR [S23P], the protein stability index rises from 1.8 to 2.95.

First: LNLAMVYRYCCWLNKKLKSYSLSR [K12W]
Second: LNLAMVYRYVCKLNKKLKSYSLSR [C10V]
The protein stability index of the first is lower: 2.14 for the first, 3.25 for the second.

Going from LNLAMVYRYCCKLNKKAKSYSLSR [L17A] to LNLAMHYRYCCKLNKKLKSYSLSR [V6H], the protein stability index falls from 2.65 to 2.03.

First: LNLAMVYRDCCKLNKKLKSYSLSR [Y9D]
Second: LPLAMVYRYCCKLNKKLKSYSLSR [N2P]
The protein stability index of the first is lower: 2.91 for the first, 3.42 for the second.

Going from LNLAMVYRYCCKLNKKLKSYSGSR [L22G] to LNLAMVYRYCCKLNKKLKSISLSR [Y20I], the protein stability index falls from 3.46 to 3.15.

First: LNLAMVYRYCCKLNCKLKSYSLSR [K15C]
Second: LNLAMVYRYCCKLNKKIKSYSLSR [L17I]
The protein stability index of the first is higher: 4.37 for the first, 2.95 for the second.

First: LNLAMVYRYCCKLNKKLKSYPLSR [S21P]
Second: LNLAMVYRYCCKLNDKLKSYSLSR [K15D]
The protein stability index of the first is higher: 3.64 for the first, 2.33 for the second.

Going from LNGAMVYRYCCKLNKKLKSYSLSR [L3G] to LNLAMVYRYCCKLNKKLKSYSLSE [R24E], the protein stability index falls from 4.11 to 2.72.

Going from LNLAMVYRYCVKLNKKLKSYSLSR [C11V] to MNLAMVYRYCCKLNKKLKSYSLSR [L1M], the protein stability index rises from 2.45 to 3.23.

Going from LNLAMVYRTCCKLNKKLKSYSLSR [Y9T] to LNLAMVYRYCCKLSKKLKSYSLSR [N14S], the protein stability index falls from 2.54 to 2.35.

Going from LNLAMKYRYCCKLNKKLKSYSLSR [V6K] to LILAMVYRYCCKLNKKLKSYSLSR [N2I], the protein stability index falls from 2.39 to 2.14.

First: LNLAMGYRYCCKLNKKLKSYSLSR [V6G]
Second: LNLAMVYRYCCKLNKMLKSYSLSR [K16M]
The protein stability index of the first is lower: 1.73 for the first, 2.77 for the second.

Going from LNLAMVYRHCCKLNKKLKSYSLSR [Y9H] to LNLAMVYRYCCKLNKKPKSYSLSR [L17P], the protein stability index rises from 2.48 to 3.05.

Compared with LNLAMVYRYCCKLDKKLKSYSLSR [N14D], LNLAMVYRYCCKLNKKLDSYSLSR [K18D] is lower in protein stability index: 2.8 for the first, 2.42 for the second.

Going from LNLCMVYRYCCKLNKKLKSYSLSR [A4C] to LNLAMVYRYCCKLNKKLKSYSLQR [S23Q], the protein stability index falls from 3.81 to 2.53.

First: LNLAMVYRYCCKKNKKLKSYSLSR [L13K]
Second: LNLAMVYRYCCKQNKKLKSYSLSR [L13Q]
The protein stability index of the first is lower: 1.56 for the first, 3.27 for the second.

Going from LNLAMVYRYCCKLNKKLKSYSLST [R24T] to LNLAVVYRYCCKLNKKLKSYSLSR [M5V], the protein stability index rises from 1.99 to 2.54.

First: LNLAMVYRYCCKLEKKLKSYSLSR [N14E]
Second: LNLAMVYRYCCKLNKSLKSYSLSR [K16S]
The protein stability index of the first is higher: 4.6 for the first, 2.33 for the second.

Compared with LNLAMVYRYCCKINKKLKSYSLSR [L13I], LNLAMVYRYCCKLNKKLKSLSLSR [Y20L] is higher in protein stability index: 2.69 for the first, 2.94 for the second.

First: LNLAMVYRYCCKLNKKLTSYSLSR [K18T]
Second: LNLAMVYRYCCKCNKKLKSYSLSR [L13C]
The protein stability index of the first is higher: 3.6 for the first, 2.79 for the second.

Going from LNLAMVYRYCCKLNKKHKSYSLSR [L17H] to LNLAMVYRYCYKLNKKLKSYSLSR [C11Y], the protein stability index rises from 2.21 to 2.63.

First: LCLAMVYRYCCKLNKKLKSYSLSR [N2C]
Second: LNLAMVYRYCCDLNKKLKSYSLSR [K12D]
The protein stability index of the first is higher: 3.28 for the first, 1.81 for the second.

Going from LNLAMVYRYCPKLNKKLKSYSLSR [C11P] to LNLAMVYRVCCKLNKKLKSYSLSR [Y9V], the protein stability index rises from 1.97 to 2.44.

Compared with LNLAMVYRYCCKLNKRLKSYSLSR [K16R], LNLAMVYRYCCKLNKTLKSYSLSR [K16T] is higher in protein stability index: 3.33 for the first, 3.67 for the second.

First: LNLAMVYRYCCKLIKKLKSYSLSR [N14I]
Second: LNLAMVFRYCCKLNKKLKSYSLSR [Y7F]
The protein stability index of the first is lower: 2.38 for the first, 3.48 for the second.

First: LNLAMVYRYCCKLNKKLKSYSLDR [S23D]
Second: LNLAMVYRYKCKLNKKLKSYSLSR [C10K]
The protein stability index of the first is higher: 2.55 for the first, 1.65 for the second.

Compared with LNIAMVYRYCCKLNKKLKSYSLSR [L3I], LNLAMVYKYCCKLNKKLKSYSLSR [R8K] is higher in protein stability index: 2.02 for the first, 2.08 for the second.

Compared with LNLAGVYRYCCKLNKKLKSYSLSR [M5G], LNLAMVYFYCCKLNKKLKSYSLSR [R8F] is lower in protein stability index: 3.92 for the first, 3.02 for the second.

Compared with LNLAMVYRYCWKLNKKLKSYSLSR [C11W], LNLAMQYRYCCKLNKKLKSYSLSR [V6Q] is higher in protein stability index: 2.15 for the first, 2.85 for the second.

Going from LNLAMVYRYACKLNKKLKSYSLSR [C10A] to LNLAMVYRYCCKLYKKLKSYSLSR [N14Y], the protein stability index rises from 2.41 to 3.35.

Compared with LNLAMVYRSCCKLNKKLKSYSLSR [Y9S], LNLVMVYRYCCKLNKKLKSYSLSR [A4V] is higher in protein stability index: 2.19 for the first, 2.74 for the second.

First: LNLAMVYRYCCKLNKKLKSYTLSR [S21T]
Second: LNLAMVYRYCCKLNKKLKQYSLSR [S19Q]
The protein stability index of the first is higher: 2.92 for the first, 1.51 for the second.

Going from LNHAMVYRYCCKLNKKLKSYSLSR [L3H] to LNLAMVSRYCCKLNKKLKSYSLSR [Y7S], the protein stability index rises from 1.8 to 3.42.
